Measurements reported in patent US20240084003A1.

Target: monkey CD22 on HEK293T-monkey CD22 cells (monkey)
Test: FACS, HEK293T-monkey CD22 cells

monkey CD22 on HEK293T-monkey CD22 cells (monkey), sequence (chain, as listed by the source limits assumed): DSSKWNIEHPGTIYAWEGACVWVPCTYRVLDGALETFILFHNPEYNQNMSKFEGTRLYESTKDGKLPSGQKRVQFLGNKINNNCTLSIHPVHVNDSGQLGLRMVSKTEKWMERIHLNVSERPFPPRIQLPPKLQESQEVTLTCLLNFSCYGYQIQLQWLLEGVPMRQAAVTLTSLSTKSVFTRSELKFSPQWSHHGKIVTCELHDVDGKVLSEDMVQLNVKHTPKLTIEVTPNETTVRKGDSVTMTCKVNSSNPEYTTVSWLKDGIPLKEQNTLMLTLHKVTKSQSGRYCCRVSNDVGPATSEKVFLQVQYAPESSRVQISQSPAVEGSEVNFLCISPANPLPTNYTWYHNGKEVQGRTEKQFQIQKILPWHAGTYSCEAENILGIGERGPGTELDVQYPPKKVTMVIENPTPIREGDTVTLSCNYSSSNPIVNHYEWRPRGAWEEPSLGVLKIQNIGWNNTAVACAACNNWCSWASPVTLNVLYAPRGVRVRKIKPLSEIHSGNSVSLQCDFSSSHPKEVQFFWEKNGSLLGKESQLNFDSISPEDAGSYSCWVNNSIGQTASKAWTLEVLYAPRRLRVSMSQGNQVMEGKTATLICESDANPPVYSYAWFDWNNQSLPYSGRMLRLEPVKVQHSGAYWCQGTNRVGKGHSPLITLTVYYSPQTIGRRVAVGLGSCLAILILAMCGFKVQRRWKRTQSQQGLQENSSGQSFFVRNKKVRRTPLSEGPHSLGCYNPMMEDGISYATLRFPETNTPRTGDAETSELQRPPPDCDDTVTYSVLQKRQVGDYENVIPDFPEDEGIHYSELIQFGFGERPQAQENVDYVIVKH

B1: F1.280.1 (antibody, human IgG1, kappa, V domains shown)
VH: QIQLVQSGPELKKPGETVKISCKASGYTFTTYGMSWVKQTPGKGLTWMGWINTDSGVPTYADDFKRRFAFSLEASATTAYLQINNLKNEDTATYFCARGGPDYWGQGTTLTVSS
VL: DILLTQSPATLSVTPGETVSLSCRASQSIYKNLHWYHQKSHRSPRLLIKYASDSISGIPSRFTGSGSGTNFTLSINSVKPEDEGIYYCLQGYIVPLTFGAGTKLELKR
A Maximum mean fluorescence intensity of 1490 MFI was found for B1 in this work.
